From the supplement of paper PMC10065799, “High-throughput profiling of sequence recognition by tyrosine kinases and SH2 domains using bacterial peptide display” (eLife, 2023)

Assays:
Fes = Fes (UniProt P07332); test: phosphorylation enrichment, bacterial display (enrichment ratio); higher = better substrate or ligand; peptides without Tyr show the background
Fyn = Fyn (UniProt P06241); test: as above
FGFR3 = FGFR3 (UniProt P22607); test: as above
EPHB1 = EPHB1 (UniProt P54762); test: as above
FGFR1 = FGFR1 (UniProt P11362); test: as above
FGFR1, sequence (P11362 whole entry, looked up): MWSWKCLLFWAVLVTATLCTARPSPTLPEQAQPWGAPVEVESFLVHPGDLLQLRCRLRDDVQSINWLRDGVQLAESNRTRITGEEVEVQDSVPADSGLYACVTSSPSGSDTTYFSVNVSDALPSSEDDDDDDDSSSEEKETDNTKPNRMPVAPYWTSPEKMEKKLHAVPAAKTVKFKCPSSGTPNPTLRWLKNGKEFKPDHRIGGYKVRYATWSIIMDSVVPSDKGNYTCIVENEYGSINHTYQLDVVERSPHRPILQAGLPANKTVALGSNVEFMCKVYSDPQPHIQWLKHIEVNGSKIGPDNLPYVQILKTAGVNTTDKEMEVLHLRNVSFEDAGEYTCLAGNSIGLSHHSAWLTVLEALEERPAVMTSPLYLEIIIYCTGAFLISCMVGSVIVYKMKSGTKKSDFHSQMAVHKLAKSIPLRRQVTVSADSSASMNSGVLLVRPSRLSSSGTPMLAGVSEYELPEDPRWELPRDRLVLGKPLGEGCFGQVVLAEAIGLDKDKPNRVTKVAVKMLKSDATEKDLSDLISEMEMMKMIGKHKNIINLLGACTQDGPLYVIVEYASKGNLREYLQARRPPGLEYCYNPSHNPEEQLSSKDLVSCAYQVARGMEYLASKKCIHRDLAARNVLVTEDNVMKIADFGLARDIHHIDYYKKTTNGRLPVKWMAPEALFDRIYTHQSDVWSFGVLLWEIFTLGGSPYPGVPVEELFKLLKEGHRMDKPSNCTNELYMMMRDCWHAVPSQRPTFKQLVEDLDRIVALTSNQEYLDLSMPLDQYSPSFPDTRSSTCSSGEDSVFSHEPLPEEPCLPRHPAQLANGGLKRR

AncSZ = test: as above
c-Abl (mouse) = test: as above
Hck = Hck (UniProt P08631); test: as above
Jak2 = Jak2 (UniProt O60674); test: as above
EPHB2 = EPHB2 (UniProt P29323); test: as above
c-Src = test: as above
MERTK = MERTK (UniProt Q12866); test: as above
MERTK, sequence (Q12866 whole entry, looked up): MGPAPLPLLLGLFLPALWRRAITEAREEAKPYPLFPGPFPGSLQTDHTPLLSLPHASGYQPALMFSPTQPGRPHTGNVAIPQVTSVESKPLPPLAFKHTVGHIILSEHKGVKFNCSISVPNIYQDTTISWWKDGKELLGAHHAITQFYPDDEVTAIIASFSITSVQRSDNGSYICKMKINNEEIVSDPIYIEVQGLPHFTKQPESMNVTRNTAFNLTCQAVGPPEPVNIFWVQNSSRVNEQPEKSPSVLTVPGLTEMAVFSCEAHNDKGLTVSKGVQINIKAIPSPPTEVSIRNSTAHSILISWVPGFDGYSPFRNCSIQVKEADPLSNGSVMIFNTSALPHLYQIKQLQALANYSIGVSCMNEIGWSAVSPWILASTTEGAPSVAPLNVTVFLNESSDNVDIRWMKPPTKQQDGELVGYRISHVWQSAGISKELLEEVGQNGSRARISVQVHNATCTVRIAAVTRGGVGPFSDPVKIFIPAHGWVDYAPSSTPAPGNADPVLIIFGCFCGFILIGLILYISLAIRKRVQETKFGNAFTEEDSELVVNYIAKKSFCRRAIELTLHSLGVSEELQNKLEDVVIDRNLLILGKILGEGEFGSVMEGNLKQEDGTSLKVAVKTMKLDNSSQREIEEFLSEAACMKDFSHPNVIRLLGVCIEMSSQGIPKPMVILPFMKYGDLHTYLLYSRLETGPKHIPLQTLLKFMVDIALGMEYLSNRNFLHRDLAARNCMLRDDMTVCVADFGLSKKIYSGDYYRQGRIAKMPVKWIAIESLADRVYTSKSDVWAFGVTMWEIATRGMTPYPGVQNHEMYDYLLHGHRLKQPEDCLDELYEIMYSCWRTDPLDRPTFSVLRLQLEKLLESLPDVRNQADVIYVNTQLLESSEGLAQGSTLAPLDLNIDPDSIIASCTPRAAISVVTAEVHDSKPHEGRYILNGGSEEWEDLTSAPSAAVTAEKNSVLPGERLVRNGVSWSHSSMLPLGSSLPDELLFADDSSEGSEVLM

Fer (mouse) = test: as above
c-Src SH2 = test: SH2 binding enrichment of the phosphorylated peptide, bacterial display (enrichment ratio); higher = better substrate or ligand; peptides without Tyr show the background
SHP2-C SH2 = test: as above
Grb2 SH2 = Grb2 SH2 (UniProt P62993); test: as above
Grb2 SH2, sequence (P62993 whole entry, looked up, the tested form may be a part): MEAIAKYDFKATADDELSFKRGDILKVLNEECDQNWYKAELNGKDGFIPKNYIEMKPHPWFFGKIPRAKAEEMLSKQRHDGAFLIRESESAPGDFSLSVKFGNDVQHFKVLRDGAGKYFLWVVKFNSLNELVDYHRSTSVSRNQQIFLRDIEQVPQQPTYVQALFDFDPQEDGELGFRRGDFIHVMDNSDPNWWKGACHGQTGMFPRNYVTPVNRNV
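Throughout, for SH2 binding enrichment of the phosphorylated peptide, bacterial display: peptide library displayed on the E. coli surface as eCPX fusions, selected cells deep-sequenced, score is each peptide's frequency after selection divided by its frequency in the input.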
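Throughout, for phosphorylation enrichment, bacterial display: 11-residue human phosphosite peptides and single-mutation variants displayed on the E. coli surface, counted by deep sequencing, each peptide's frequency after selection divided by its frequency in the unselected input library; frequency after pTyr selection over input frequency; kinase dosed for 20-30% of maximal phosphorylation in three min.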

Fes, sequence (P07332 whole entry, looked up): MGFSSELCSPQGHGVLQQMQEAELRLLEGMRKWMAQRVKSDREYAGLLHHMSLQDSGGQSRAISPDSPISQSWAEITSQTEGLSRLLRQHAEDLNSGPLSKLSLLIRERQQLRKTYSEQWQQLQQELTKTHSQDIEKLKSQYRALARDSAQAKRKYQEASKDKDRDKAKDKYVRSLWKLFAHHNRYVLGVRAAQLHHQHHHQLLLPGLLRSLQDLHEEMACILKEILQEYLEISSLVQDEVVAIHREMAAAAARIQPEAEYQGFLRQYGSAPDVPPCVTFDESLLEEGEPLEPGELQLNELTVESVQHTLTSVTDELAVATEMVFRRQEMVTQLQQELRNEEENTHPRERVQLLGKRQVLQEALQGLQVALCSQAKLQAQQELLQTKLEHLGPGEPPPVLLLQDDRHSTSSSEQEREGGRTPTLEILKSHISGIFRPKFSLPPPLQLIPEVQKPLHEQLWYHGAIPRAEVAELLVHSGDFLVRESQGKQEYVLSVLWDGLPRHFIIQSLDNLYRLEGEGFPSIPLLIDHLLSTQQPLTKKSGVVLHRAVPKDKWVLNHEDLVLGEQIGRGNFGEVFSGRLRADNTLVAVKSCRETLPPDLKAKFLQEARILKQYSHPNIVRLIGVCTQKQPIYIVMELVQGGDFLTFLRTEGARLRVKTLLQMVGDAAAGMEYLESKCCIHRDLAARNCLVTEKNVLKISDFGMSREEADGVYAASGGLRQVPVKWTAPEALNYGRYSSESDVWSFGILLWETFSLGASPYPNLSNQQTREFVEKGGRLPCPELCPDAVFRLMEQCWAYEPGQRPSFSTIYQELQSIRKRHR
FGFR3, sequence (P22607 whole entry, looked up): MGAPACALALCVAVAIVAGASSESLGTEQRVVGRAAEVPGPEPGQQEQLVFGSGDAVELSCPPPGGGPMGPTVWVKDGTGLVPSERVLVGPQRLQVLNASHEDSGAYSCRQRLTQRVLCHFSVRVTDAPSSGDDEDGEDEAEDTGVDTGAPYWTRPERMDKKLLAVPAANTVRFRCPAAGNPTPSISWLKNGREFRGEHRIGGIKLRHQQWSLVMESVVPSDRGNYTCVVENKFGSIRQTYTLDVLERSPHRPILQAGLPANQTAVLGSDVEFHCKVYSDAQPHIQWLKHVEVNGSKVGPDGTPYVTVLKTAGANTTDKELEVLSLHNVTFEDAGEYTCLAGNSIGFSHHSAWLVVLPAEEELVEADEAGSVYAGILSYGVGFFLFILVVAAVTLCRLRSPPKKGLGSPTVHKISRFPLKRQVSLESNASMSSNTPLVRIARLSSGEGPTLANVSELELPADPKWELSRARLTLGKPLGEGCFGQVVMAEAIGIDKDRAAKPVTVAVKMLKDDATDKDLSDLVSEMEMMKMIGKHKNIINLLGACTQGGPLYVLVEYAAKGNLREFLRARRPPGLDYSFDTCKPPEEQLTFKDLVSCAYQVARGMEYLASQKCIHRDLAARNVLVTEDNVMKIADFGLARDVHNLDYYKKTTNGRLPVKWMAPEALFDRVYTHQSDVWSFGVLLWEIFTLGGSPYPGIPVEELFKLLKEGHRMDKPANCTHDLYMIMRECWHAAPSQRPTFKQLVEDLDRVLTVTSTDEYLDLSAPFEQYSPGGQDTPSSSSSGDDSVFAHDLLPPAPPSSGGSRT
EPHB1, sequence (P54762 whole entry, looked up): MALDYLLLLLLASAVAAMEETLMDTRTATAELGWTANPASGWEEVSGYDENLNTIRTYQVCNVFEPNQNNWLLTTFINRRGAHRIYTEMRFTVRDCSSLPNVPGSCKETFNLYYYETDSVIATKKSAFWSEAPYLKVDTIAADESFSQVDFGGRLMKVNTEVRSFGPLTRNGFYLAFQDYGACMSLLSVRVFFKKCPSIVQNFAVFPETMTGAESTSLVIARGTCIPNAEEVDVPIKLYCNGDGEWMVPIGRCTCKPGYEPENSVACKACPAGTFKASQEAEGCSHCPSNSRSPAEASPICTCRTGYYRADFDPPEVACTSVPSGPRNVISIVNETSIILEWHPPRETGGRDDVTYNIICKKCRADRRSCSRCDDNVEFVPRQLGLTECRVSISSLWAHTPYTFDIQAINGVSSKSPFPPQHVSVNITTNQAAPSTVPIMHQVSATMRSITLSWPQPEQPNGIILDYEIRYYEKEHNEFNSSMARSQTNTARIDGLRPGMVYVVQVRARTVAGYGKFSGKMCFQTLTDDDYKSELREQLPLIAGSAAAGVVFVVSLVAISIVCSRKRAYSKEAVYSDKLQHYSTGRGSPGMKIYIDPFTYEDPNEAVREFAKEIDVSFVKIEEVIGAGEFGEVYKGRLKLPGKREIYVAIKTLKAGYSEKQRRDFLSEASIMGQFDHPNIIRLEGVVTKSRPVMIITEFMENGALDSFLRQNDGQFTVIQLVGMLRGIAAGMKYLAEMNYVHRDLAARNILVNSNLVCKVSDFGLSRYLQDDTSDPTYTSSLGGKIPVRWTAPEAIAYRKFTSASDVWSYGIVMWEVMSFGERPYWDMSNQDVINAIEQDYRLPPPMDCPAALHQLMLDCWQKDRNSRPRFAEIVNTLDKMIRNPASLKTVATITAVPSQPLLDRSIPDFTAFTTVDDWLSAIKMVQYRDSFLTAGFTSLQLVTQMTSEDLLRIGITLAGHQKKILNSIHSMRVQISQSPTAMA

Row | Sequence | phosphorylation enrichment (Fes) | phosphorylation enrichment (Fyn) | phosphorylation enrichment (FGFR3) | phosphorylation enrichment (EPHB1) | phosphorylation enrichment (FGFR1) | phosphorylation enrichment (AncSZ) | phosphorylation enrichment (c-Abl (mouse)) | phosphorylation enrichment (Hck) | phosphorylation enrichment (Jak2) | phosphorylation enrichment (EPHB2) | phosphorylation enrichment (c-Src) | phosphorylation enrichment (MERTK) | phosphorylation enrichment (Fer (mouse)) | SH2 binding enrichment (c-Src SH2) | SH2 binding enrichment (SHP2-C SH2) | SH2 binding enrichment (Grb2 SH2)
1 | AAGGRYYGLVG [HARS1_Y363_D364Y] | 0.601 | 0.618 | 0.451 | 0.347 | 0.432 | 0.56 | 0.671 | 0.715 | 0.49 | 0.441 | 0.867 | 3.95 | 0.45 | 1.79 | 0.595 | 0.938
2 | AAILGYCHGEA [XPC_Y669_R671H] | 1.03 | 0.535 | 0.733 | 0.581 | 0.523 | 0.975 | 0.7 | 0.53 | 0.725 | 0.75 | 0.373 | 0.827 | 0.474 | 0.549 | 0.701 | 0.855
3 | AAVDTYCRHNF [HLA-DRB1_Y107_YF] | 1.04 | 0.415 | 0.715 | 0.562 | 0.426 | 0.794 | 0.755 | 0.501 | 0.88 | 0.516 | 0.548 | 0.497 | 0.589 | 0.529 | 0.593 | 0.912
4 | ADAGMYGVLPW [PLP1_Y207_R205G] | 0.845 | 9.65 | 0.529 | 1.76 | 0.549 | 0.803 | 3.07 | 9.1 | 0.637 | 6.53 | 6.61 | 6.35 | 2.39 | 0.435 | 0.74 | 0.726
5 | ADARMYGDLPW [PLP1_Y207_V209D] | 0.794 | 3.54 | 0.7 | 0.65 | 0.6 | 0.766 | 0.586 | 3.49 | 0.71 | 0.506 | 2.74 | 0.52 | 1.43 | 0.573 | 1.09 | 0.868
6 | ADFFDYGRGLS [KHDRBS3_Y304_H306R_YF] | 0.746 | 0.518 | 0.702 | 0.426 | 0.414 | 0.808 | 0.59 | 0.421 | 0.798 | 0.522 | 0.521 | 0.369 | 0.4 | 0.625 | 0.554 | 0.82
7 | ADTETYLLEKS [MYH7_Y266_I263T] | 1.1 | 0.603 | 0.745 | 0.449 | 0.57 | 1.12 | 0.709 | 0.512 | 1.01 | 0.586 | 0.551 | 0.385 | 0.607 | 0.56 | 0.785 | 0.859
8 | AEDKPYAELWT [MPI_Y46_M51T] | 1.25 | 1.3 | 1 | 0.689 | 1.01 | 1.17 | 0.772 | 1.13 | 0.958 | 0.737 | 2.54 | 0.994 | 7.1 | 2.62 | 1.11 | 0.929
9 | AFPGEYIPTVF [RAC1_Y32] | 0.828 | 0.381 | 0.617 | 0.444 | 0.618 | 0.776 | 0.689 | 0.492 | 0.924 | 0.476 | 0.476 | 0.474 | 0.509 | 0.544 | 0.723 | 1.05
10 | AFRHGYFDEEM [PLEC_Y2971_R2969H_YF] | 1.12 | 0.487 | 0.676 | 0.498 | 0.554 | 1.13 | 0.806 | 0.456 | 1.3 | 0.59 | 0.412 | 0.478 | 0.593 | 0.606 | 0.614 | 0.832
11 | AGAKTYKMSMA [CPS1_Y309] | 0.405 | 0.402 | 0.426 | 0.328 | 0.309 | 0.389 | 0.383 | 0.374 | 0.527 | 0.264 | 0.399 | 0.364 | 0.406 | 0.586 | 0.819 | 0.688
12 | AGQEDCDRLRP [CDC42_Y64_Y64C] | 0.882 | 0.436 | 0.586 | 0.552 | 0.476 | 0.784 | 0.609 | 0.424 | 0.682 | 0.444 | 0.427 | 0.364 | 0.439 | 0.548 | 0.945 | 1.07
13 | AGQEKYSAMRD [HRAS_Y64_E63K] | 0.837 | 0.427 | 0.498 | 0.318 | 0.324 | 0.574 | 0.604 | 0.423 | 0.618 | 0.424 | 0.416 | 0.312 | 0.37 | 0.496 | 0.639 | 0.703
14 | AHEALYLEADL [CENPF_Y1920_E1915A] | 1.29 | 0.692 | 2.09 | 0.781 | 2.2 | 1.82 | 1.09 | 0.736 | 1.05 | 0.802 | 0.855 | 1.03 | 1.12 | 0.399 | 0.386 | 0.577
15 | AIFEGYALPHA [ACTC1_Y171_P166A_YF] | 0.801 | 0.472 | 0.535 | 0.452 | 0.549 | 0.732 | 1.2 | 0.43 | 0.539 | 0.401 | 0.414 | 0.726 | 0.605 | 5.11 | 0.518 | 0.932
16 | AKIDGYITSFR | 0.957 | 0.439 | 0.573 | 0.427 | 0.513 | 0.795 | 0.573 | 0.381 | 0.535 | 0.411 | 0.407 | 0.468 | 0.468 | 0.625 | 0.936 | 1.02
17 | AKRKGYDMQVD [NEB_Y2770_R2773Q] | 0.395 | 0.327 | 0.315 | 0.257 | 0.311 | 0.473 | 0.372 | 0.363 | 0.377 | 0.366 | 0.404 | 0.301 | 0.328 | 0.533 | 0.493 | 0.728

Row | Sequence | phosphorylation enrichment (Fes) | phosphorylation enrichment (Fyn) | phosphorylation enrichment (FGFR3) | phosphorylation enrichment (EPHB1) | phosphorylation enrichment (FGFR1) | phosphorylation enrichment (AncSZ) | phosphorylation enrichment (c-Abl (mouse)) | phosphorylation enrichment (Hck) | phosphorylation enrichment (Jak2) | phosphorylation enrichment (EPHB2) | phosphorylation enrichment (c-Src) | phosphorylation enrichment (MERTK) | phosphorylation enrichment (Fer (mouse)) | SH2 binding enrichment (c-Src SH2) | SH2 binding enrichment (SHP2-C SH2) | SH2 binding enrichment (Grb2 SH2)
18 | ALAHKHHGGGG [HBB_Y146_Y146H] | 0.593 | 0.414 | 0.539 | 0.372 | 0.355 | 0.588 | 0.569 | 0.419 | 0.558 | 0.391 | 0.505 | 0.416 | 0.419 | 0.586 | 0.673 | 0.771
19 | ALCHFYKLNII [ETV6_Y402_R399C_YF] | 1.42 | 0.537 | 0.806 | 0.607 | 0.479 | 1.19 | 0.833 | 0.544 | 1.26 | 0.732 | 0.581 | 0.499 | 0.692 | 0.915 | 1.06 | 1.12
20 | ALECLYRREKR [TEKT5_Y195_H196R] | 1.85 | 0.539 | 0.482 | 0.466 | 0.584 | 0.775 | 0.522 | 0.515 | 0.788 | 0.534 | 0.66 | 0.621 | 0.435 | 0.268 | 0.551 | 0.769
21 | ALEQKYWALGQ [MAP1A_Y1555] | 0.735 | 1.39 | 0.665 | 0.53 | 0.674 | 0.768 | 0.537 | 0.875 | 0.886 | 0.492 | 1.82 | 1.3 | 0.436 | 1.49 | 0.662 | 0.867
22 | ALHHPYGCDVE [ABL2_Y80_R78H] | 0.998 | 0.44 | 0.726 | 0.606 | 0.441 | 0.803 | 0.681 | 0.541 | 0.708 | 0.621 | 0.669 | 0.44 | 0.447 | 0.773 | 0.771 | 1.03
23 | ALPVFYAATIA [SLC20A2_Y187] | 1.03 | 0.544 | 0.651 | 0.905 | 0.394 | 0.823 | 0.831 | 0.956 | 0.886 | 0.756 | 0.598 | 2.96 | 1.2 | 0.669 | 0.889 | 0.793
24 | ALSDGYWVVSN [TPP1_Y459] | 1.01 | 0.44 | 1.1 | 0.475 | 1.32 | 1.19 | 0.71 | 0.635 | 1.79 | 0.518 | 0.516 | 0.372 | 0.398 | 9.23 | 0.879 | 0.823
25 | ALTDNYMFVVI [HAGH_Y61_L64V_YF] | 1.61 | 0.653 | 6.54 | 11.5 | 8.71 | 1.68 | 0.99 | 0.574 | 1.3 | 8.6 | 0.516 | 1.52 | 5.63 | 0.388 | 0.568 | 0.679
26 | AMGAVYQAAAL [HYOU1_Y421] | 0.615 | 1.91 | 0.612 | 0.534 | 0.58 | 0.686 | 0.98 | 3.19 | 0.566 | 0.512 | 2.81 | 0.431 | 1.63 | 1.08 | 0.503 | 0.79
27 | ANNEFYFRVCA | 1.43 | 0.483 | 0.824 | 0.563 | 0.445 | 1.28 | 0.923 | 0.516 | 1.39 | 0.548 | 0.412 | 0.44 | 0.536 | 0.37 | 0.567 | 0.716
28 | ANNEYYFQVCA | 1.5 | 0.607 | 7.38 | 0.957 | 8.62 | 2.03 | 1.01 | 0.706 | 1.68 | 0.768 | 0.892 | 0.73 | 0.614 | 0.367 | 0.491 | 0.61
29 | APEVIYATPGA [ABLtide_2014] | 1.14 | 8.17 | 0.868 | 3.19 | 0.879 | 2.58 | 34.4 | 9.6 | 0.839 | 8.54 | 5.95 | 8.2 | 11.6 | 0.439 | 0.672 | 0.691
30 | APQFTYAQGGQ [FLNA_Y1763_YF] | 0.706 | 0.574 | 0.628 | 0.372 | 0.585 | 0.645 | 0.421 | 0.415 | 0.42 | 0.739 | 0.538 | 0.26 | 0.304 | 0.546 | 0.611 | 0.705
31 | ARMTNCGLPRF [TSPAN12_Y138_Y138C_YF] | 0.689 | 0.322 | 0.453 | 0.292 | 0.387 | 0.58 | 0.591 | 0.358 | 0.492 | 0.421 | 0.323 | 0.368 | 0.352 | 0.74 | 1 | 1.06
32 | ARSMEYLAEQK [MST1R_Y1198] | 0.839 | 0.585 | 0.622 | 0.488 | 0.471 | 0.755 | 0.655 | 0.622 | 1.08 | 0.493 | 0.474 | 0.548 | 0.403 | 0.384 | 0.611 | 0.819
33 | ASLEAYCKHKF [RXRA_Y403_YF] | 1.07 | 0.468 | 0.915 | 0.572 | 0.654 | 0.83 | 0.687 | 0.519 | 0.697 | 0.66 | 0.497 | 0.556 | 0.585 | 0.767 | 0.868 | 0.963
34 | QNTGGYFDLFG [PTPN11_Y62_D61G_YF] |  |  |  |  |  |  | 0.27 |  | 1.26 |  |  |  |  |  |  | 
